# In publication PMC11765882, “A High-Resolution Crystallographic Study of Cytochrome c6: Structural Basis for Electron Transfer in Cyanobacterial Photosynthesis” (International Journal of Molecular Sciences, 2025):
# B1: Cytochrome c6 from Synechocystis sp. PCC 6803 (natural protein)
# chain: ADLAHGKAIFAGNCAACHNGGLNAINPSKTLKMADLEANGKNSVAAIVAQITNGNGAMPGFKGRISDSDMEDVAAYVLDQAEKGW
# modifications: heme covalently linked to two cysteine residues via thioether bonds (CXXCH motif); iron axially coordinated by methionine and histidine
# notes: Cytochrome c6, Synechocystis sp; cloned into pET22b with an N-terminal pelB signal peptide; Crystallised only in the reduced form (3 mM beta-mercaptoethanol); The printed residue numbers and the MALDI-TOF mass (9449.297 with heme) fit the mature protein without the native signal peptide
# B2: Cytochrome c6 from Synechococcus elongatus sp. PCC 7942 (natural protein, Synechococcus elongatus PCC 7942)
# chain: ADLAHGGQVFSANCAACHLGGRNVVNPAKTLQKADLDQYGMASIEAITTQVTNGKGAMPAFGSKLSADDIADVASYVLDQSEKGWQG
# modifications: heme covalently linked to two cysteine residues via thioether bonds (CXXCH motif); iron axially coordinated by methionine and histidine
# notes: cloned into pET22b with an N-terminal pelB signal peptide; Used reduced (3 mM beta-mercaptoethanol) and oxidised (40-fold molar excess of potassium ferricyanide); The printed residue numbers (Asp2, His5, Ala16) and the MALDI-TOF mass (9714.504 with heme) fit the mature protein without the native signal peptide
# Target: the molecule itself
# Experiment: native gel or EMSA; blue native PAGE (4-13%) of the purified protein; dimer and monomer
row,Protein,stoichiometry N
1,B1,2
2,B2,2
